B1: Calcium/calmodulin-dependent protein kinase kinase 1 (Homo sapiens), Q8N5S9 (parent)
chain: MEGGPAVCCQDPRAELVERVAAIDVTHLEEADGGPEPTRNGVDPPPRARAASVIPGSTSRLLPARPSLSARKLSLQERPAGSYLEAQAGPYATGPASHISPRAWRRPTIESHHVAISDAEDCVQLNQYKLQSEIGKGAYGVVRLAYNESEDRHYAMKVLSKKKLLKQYGFPRRPPPRGSQAAQGGPAKQLLPLERVYQEIAILKKLDHVNVVKLIEVLDDPAEDNLYLVFDLLRKGPVMEVPCDKPFSEEQARLYLRDVILGLEYLHCQKIVHRDIKPSNLLLGDDGHVKIADFGVSNQFEGNDAQLSSTAGTPAFMAPEAISDSGQSFSGKALDVWATGVTLYCFVYGKCPFIDDFILALHRKIKNEPVVFPEEPEISEELKDLILKMLDKNPETRIGVPDIKLHPWVTKNGEEPLPSEEEHCSVVEVTEEEVKNSVRLIPSWTTVILVKSMLRKRSFGNPFEPQARREERSMSAPGNLLVKEGFGEGGKSPELPGVQEDEAAS
partner: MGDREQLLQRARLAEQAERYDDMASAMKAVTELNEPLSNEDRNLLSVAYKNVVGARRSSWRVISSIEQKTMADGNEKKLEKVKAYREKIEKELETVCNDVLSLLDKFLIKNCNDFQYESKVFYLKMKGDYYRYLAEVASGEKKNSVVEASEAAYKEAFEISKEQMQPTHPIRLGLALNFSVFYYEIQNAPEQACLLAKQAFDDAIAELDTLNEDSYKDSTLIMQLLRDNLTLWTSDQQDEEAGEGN

One test covers variants of B1. The settings on record: with 1433f_human YWHAH.
Take S52A;S74A;S458A;S475A: the “effect of a mutation on the interaction” value is reported as “disrupting interaction”.

In the next test the parent is B1. The settings on record: with 1433f_human YWHAH. The source holds these as a separate data set.
With S52A;T108A;S458A;S475A, the “effect of a mutation on the interaction” value is reported as “decreasing interaction”.

The next test covers variants of B1. The settings on record: with 1433f_human YWHAH. This is another data set of the same source.
For the variant S52A;S74A;T108A;S475A, the “effect of a mutation on the interaction” value is on record as “disrupting interaction”.

In another test the parent is B1. As to conditions: with 1433f_human YWHAH. This is another data set of the same source.
Consider S475A, for which the “effect of a mutation on the interaction” value is on record as “disrupting interaction”.

With S74A, the “effect of a mutation on the interaction” value is “disrupting interaction”.

The values are drawn from IntAct's records for PubMed 18242179.
